Measured values taken from the supplement of paper PMC9876800.

The substances below were run on peptide library, one residue held at a place counted from the S/T acceptor (assay: relative phosphorylation of the sub-library (ratio to the mean residue at this position); human; higher = residue favoured). Conditions: F fixed; at -2.
Method in brief: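 In 384-well plates, purified recombinant kinases (human or orthologue constructs) were incubated for 90 min under kinase-specific conditions with 50 μM biotinylated degenerate peptide sub-libraries and 50 μM ATP spiked with γ-32P-ATP. Each sub-library fixed a single residue at one position around a central Ser/Thr. Relative sub-library phosphorylation, measured by phosphorimaging and densitometry of streptavidin membrane spots, is given as a ratio to the mean residue at that position.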

SLK, construct: Full length, sequence (Q9H2G2 whole entry, looked up): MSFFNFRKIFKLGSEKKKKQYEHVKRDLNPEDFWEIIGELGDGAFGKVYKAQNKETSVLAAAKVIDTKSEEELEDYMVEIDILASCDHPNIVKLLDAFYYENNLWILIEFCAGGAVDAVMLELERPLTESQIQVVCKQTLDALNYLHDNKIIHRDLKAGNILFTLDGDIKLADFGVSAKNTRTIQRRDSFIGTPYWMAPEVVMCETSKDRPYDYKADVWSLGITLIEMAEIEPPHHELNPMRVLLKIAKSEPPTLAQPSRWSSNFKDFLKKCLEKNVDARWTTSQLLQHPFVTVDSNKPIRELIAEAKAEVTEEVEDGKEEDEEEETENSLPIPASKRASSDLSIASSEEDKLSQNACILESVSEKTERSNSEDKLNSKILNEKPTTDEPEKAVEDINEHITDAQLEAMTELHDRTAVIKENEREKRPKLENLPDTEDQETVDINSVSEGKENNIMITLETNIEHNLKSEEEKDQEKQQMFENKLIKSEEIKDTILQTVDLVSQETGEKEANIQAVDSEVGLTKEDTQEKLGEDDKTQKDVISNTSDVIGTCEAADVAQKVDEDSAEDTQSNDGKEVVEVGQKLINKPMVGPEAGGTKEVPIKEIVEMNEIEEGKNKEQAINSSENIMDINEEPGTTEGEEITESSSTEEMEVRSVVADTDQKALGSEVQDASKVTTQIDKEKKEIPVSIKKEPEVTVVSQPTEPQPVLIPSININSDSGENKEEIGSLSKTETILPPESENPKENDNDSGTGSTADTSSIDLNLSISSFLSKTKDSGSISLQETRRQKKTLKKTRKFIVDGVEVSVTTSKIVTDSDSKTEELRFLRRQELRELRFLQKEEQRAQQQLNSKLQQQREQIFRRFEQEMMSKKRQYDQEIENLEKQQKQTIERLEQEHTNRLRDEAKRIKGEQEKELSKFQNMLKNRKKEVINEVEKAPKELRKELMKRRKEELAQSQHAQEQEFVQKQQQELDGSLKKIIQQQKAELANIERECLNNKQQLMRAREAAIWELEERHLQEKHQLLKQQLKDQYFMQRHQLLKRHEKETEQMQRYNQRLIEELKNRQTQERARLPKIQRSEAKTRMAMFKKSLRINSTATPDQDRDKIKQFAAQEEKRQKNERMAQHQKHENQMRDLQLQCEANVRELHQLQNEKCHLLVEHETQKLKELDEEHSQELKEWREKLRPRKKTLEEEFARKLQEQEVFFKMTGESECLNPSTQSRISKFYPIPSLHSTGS
MAP4K5, construct: Full length, sequence (Q9Y4K4 whole entry, looked up): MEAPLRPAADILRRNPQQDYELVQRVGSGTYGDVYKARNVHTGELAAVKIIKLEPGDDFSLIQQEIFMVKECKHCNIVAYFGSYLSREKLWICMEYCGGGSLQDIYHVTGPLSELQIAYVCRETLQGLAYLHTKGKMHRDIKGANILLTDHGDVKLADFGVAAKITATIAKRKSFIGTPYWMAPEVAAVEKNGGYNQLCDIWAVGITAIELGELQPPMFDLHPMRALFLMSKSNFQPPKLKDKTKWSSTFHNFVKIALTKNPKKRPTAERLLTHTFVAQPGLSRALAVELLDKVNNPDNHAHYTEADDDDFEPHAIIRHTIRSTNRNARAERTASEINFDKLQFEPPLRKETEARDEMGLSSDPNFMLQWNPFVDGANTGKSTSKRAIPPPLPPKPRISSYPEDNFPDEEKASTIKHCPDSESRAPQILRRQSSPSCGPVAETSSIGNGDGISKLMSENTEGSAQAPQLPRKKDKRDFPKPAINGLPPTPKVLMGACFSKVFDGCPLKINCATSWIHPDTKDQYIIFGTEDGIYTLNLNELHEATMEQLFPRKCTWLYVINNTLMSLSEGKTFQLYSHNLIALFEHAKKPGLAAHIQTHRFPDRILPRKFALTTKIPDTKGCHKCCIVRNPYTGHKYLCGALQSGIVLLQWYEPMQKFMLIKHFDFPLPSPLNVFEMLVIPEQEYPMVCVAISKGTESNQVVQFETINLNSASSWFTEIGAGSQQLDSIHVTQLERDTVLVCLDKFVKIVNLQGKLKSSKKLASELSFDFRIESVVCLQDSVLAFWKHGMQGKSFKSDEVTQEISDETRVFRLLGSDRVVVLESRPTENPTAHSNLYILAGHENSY
IKBKE, construct: Full length, sequence (Q14164 whole entry, looked up): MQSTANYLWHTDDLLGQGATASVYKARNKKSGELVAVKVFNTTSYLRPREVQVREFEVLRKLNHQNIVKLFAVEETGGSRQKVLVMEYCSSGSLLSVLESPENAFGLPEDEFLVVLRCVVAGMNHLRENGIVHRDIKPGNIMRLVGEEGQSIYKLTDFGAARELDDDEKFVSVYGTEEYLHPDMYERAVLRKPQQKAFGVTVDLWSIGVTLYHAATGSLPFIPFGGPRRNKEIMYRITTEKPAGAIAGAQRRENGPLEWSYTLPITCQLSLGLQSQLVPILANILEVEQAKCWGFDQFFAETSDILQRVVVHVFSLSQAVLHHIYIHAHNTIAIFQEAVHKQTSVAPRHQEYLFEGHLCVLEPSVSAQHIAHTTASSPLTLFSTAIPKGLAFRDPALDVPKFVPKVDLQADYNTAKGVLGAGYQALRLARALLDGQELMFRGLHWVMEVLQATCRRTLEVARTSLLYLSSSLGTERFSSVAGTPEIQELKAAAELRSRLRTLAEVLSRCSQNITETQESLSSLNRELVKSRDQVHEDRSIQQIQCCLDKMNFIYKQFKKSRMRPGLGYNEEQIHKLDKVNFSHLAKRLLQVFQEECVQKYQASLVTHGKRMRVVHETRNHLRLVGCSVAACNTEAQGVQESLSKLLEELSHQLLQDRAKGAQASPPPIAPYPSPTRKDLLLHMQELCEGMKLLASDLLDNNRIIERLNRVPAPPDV
SIK3, construct: aa1-307, sequence (Q9Y2K2 1-307, looked up): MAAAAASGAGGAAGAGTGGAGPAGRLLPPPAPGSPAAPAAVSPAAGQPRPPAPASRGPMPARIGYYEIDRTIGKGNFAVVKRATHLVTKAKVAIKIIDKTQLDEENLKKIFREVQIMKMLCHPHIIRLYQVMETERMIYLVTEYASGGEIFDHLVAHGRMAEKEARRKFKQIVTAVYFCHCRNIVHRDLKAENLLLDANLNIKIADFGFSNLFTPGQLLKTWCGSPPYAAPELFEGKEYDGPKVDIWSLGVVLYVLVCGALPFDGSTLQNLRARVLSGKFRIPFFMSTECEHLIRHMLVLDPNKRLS
CDK10, construct: Full length, sequence (Q15131 whole entry, looked up): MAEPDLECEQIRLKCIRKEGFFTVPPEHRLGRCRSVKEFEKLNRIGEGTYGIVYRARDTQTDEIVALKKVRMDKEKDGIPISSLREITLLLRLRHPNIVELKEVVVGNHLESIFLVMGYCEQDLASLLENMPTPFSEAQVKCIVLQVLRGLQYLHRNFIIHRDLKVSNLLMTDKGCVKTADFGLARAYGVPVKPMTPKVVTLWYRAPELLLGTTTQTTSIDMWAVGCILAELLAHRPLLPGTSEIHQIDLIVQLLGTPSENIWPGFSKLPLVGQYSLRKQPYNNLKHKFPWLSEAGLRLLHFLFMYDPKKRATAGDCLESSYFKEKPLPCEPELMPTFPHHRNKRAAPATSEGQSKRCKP
NEK6, construct: Full length, sequence (Q9HC98 whole entry, looked up): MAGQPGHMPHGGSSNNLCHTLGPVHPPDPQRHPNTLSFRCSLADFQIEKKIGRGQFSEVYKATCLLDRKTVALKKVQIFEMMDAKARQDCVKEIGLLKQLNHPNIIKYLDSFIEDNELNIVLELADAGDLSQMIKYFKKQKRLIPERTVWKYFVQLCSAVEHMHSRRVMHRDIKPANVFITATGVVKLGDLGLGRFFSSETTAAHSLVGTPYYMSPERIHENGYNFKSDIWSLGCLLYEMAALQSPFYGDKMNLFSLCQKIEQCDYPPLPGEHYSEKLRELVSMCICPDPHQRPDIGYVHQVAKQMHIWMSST
TNIK, construct: aa1-314, sequence (Q9UKE5 1-314, looked up): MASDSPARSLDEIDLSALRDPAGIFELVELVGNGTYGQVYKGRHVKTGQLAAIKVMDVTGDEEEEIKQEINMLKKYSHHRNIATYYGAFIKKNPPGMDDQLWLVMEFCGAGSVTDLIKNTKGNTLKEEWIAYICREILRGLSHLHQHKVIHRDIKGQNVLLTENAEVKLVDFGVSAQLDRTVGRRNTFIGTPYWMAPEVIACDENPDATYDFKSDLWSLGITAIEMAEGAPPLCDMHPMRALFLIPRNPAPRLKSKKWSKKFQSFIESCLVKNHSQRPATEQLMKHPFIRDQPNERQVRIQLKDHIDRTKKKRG

Row | Substance | relative phosphorylation
1 | PKN2, construct: aa501-984 (from UniProt Q16513) | 0.671
2 | IKBKE, construct: Full length (from UniProt Q14164) | 1.65
3 | MAP4K5, construct: Full length (from UniProt Q9Y4K4) | 1.07
4 | NEK6, construct: Full length (from UniProt Q9HC98) | 0.647
5 | SIK3, construct: aa1-307 (from UniProt Q9Y2K2) | 1.06
6 | TNIK, construct: aa1-314 (from UniProt Q9UKE5) | 1.24
7 | SLK, construct: Full length (from UniProt Q9H2G2) | 2.5
8 | CDK10, construct: Full length (from UniProt Q15131) | 0.667

Same assay, conditions: F fixed; at -3

Row | Substance | relative phosphorylation
9 | PKN2, construct: aa501-984 (from UniProt Q16513) | 0.464
10 | IKBKE, construct: Full length (from UniProt Q14164) | 0.755
11 | MAP4K5, construct: Full length (from UniProt Q9Y4K4) | 0.744
12 | NEK6, construct: Full length (from UniProt Q9HC98) | 1.61
13 | SIK3, construct: aa1-307 (from UniProt Q9Y2K2) | 0.698
14 | TNIK, construct: aa1-314 (from UniProt Q9UKE5) | 0.895
15 | SLK, construct: Full length (from UniProt Q9H2G2) | 0.948
16 | CDK10, construct: Full length (from UniProt Q15131) | 0.635

Same assay, conditions: F fixed; at -4

Row | Substance | relative phosphorylation
17 | PKN2, construct: aa501-984 (from UniProt Q16513) | 0.749
18 | IKBKE, construct: Full length (from UniProt Q14164) | 0.829
19 | MAP4K5, construct: Full length (from UniProt Q9Y4K4) | 0.995
20 | NEK6, construct: Full length (from UniProt Q9HC98) | 0.839
21 | SIK3, construct: aa1-307 (from UniProt Q9Y2K2) | 0.867
22 | TNIK, construct: aa1-314 (from UniProt Q9UKE5) | 0.959
23 | SLK, construct: Full length (from UniProt Q9H2G2) | 0.894
24 | CDK10, construct: Full length (from UniProt Q15131) | 0.782

Same assay, conditions: F fixed; at -5

Row | Substance | relative phosphorylation
25 | PKN2, construct: aa501-984 (from UniProt Q16513) | 0.806
26 | IKBKE, construct: Full length (from UniProt Q14164) | 0.992
27 | MAP4K5, construct: Full length (from UniProt Q9Y4K4) | 0.974
28 | NEK6, construct: Full length (from UniProt Q9HC98) | 0.875
29 | SIK3, construct: aa1-307 (from UniProt Q9Y2K2) | 1.06
30 | TNIK, construct: aa1-314 (from UniProt Q9UKE5) | 0.909
31 | SLK, construct: Full length (from UniProt Q9H2G2) | 0.915
32 | CDK10, construct: Full length (from UniProt Q15131) | 1.02

Same assay, conditions: G fixed; at +1

Row | Substance | relative phosphorylation
33 | PKN2, construct: aa501-984 (from UniProt Q16513) | 0.43
34 | IKBKE, construct: Full length (from UniProt Q14164) | 0.423
35 | MAP4K5, construct: Full length (from UniProt Q9Y4K4) | 0.585
36 | NEK6, construct: Full length (from UniProt Q9HC98) | 1.02
37 | SIK3, construct: aa1-307 (from UniProt Q9Y2K2) | 0.646
38 | TNIK, construct: aa1-314 (from UniProt Q9UKE5) | 0.746
39 | SLK, construct: Full length (from UniProt Q9H2G2) | 0.428
40 | CDK10, construct: Full length (from UniProt Q15131) | 1.3

Same assay, conditions: G fixed; at +2

Row | Substance | relative phosphorylation
41 | PKN2, construct: aa501-984 (from UniProt Q16513) | 0.554
42 | IKBKE, construct: Full length (from UniProt Q14164) | 0.811
43 | MAP4K5, construct: Full length (from UniProt Q9Y4K4) | 1.04
44 | NEK6, construct: Full length (from UniProt Q9HC98) | 1.27
45 | SIK3, construct: aa1-307 (from UniProt Q9Y2K2) | 0.775
46 | TNIK, construct: aa1-314 (from UniProt Q9UKE5) | 1.01
47 | SLK, construct: Full length (from UniProt Q9H2G2) | 0.917
48 | CDK10, construct: Full length (from UniProt Q15131) | 0.952

Same assay, conditions: G fixed; at +3

Row | Substance | relative phosphorylation
49 | PKN2, construct: aa501-984 (from UniProt Q16513) | 0.938
50 | IKBKE, construct: Full length (from UniProt Q14164) | 0.961
51 | MAP4K5, construct: Full length (from UniProt Q9Y4K4) | 0.891
52 | NEK6, construct: Full length (from UniProt Q9HC98) | 1.69
53 | SIK3, construct: aa1-307 (from UniProt Q9Y2K2) | 0.505
54 | TNIK, construct: aa1-314 (from UniProt Q9UKE5) | 0.904
55 | SLK, construct: Full length (from UniProt Q9H2G2) | 1.01
56 | CDK10, construct: Full length (from UniProt Q15131) | 0.795

Same assay, conditions: G fixed; at +4

Row | Substance | relative phosphorylation
57 | PKN2, construct: aa501-984 (from UniProt Q16513) | 1.17
58 | IKBKE, construct: Full length (from UniProt Q14164) | 0.879
59 | MAP4K5, construct: Full length (from UniProt Q9Y4K4) | 1.21
60 | NEK6, construct: Full length (from UniProt Q9HC98) | 1.26
61 | SIK3, construct: aa1-307 (from UniProt Q9Y2K2) | 0.546
62 | TNIK, construct: aa1-314 (from UniProt Q9UKE5) | 1.17
63 | SLK, construct: Full length (from UniProt Q9H2G2) | 1.04
64 | CDK10, construct: Full length (from UniProt Q15131) | 1.09

Same assay, conditions: G fixed; at -1

Row | Substance | relative phosphorylation
65 | PKN2, construct: aa501-984 (from UniProt Q16513) | 1.32
66 | IKBKE, construct: Full length (from UniProt Q14164) | 0.677
67 | MAP4K5, construct: Full length (from UniProt Q9Y4K4) | 1.79
68 | NEK6, construct: Full length (from UniProt Q9HC98) | 0.75
69 | SIK3, construct: aa1-307 (from UniProt Q9Y2K2) | 2.72
70 | TNIK, construct: aa1-314 (from UniProt Q9UKE5) | 1.73
71 | SLK, construct: Full length (from UniProt Q9H2G2) | 0.478
72 | CDK10, construct: Full length (from UniProt Q15131) | 1.56

Same assay, conditions: G fixed; at -2

Row | Substance | relative phosphorylation
73 | PKN2, construct: aa501-984 (from UniProt Q16513) | 0.949
74 | IKBKE, construct: Full length (from UniProt Q14164) | 0.857
75 | MAP4K5, construct: Full length (from UniProt Q9Y4K4) | 1.43
76 | NEK6, construct: Full length (from UniProt Q9HC98) | 1.75
77 | SIK3, construct: aa1-307 (from UniProt Q9Y2K2) | 1.28
78 | TNIK, construct: aa1-314 (from UniProt Q9UKE5) | 1.3
79 | SLK, construct: Full length (from UniProt Q9H2G2) | 0.424
80 | CDK10, construct: Full length (from UniProt Q15131) | 0.715

Same assay, conditions: G fixed; at -3

Row | Substance | relative phosphorylation
81 | PKN2, construct: aa501-984 (from UniProt Q16513) | 0.823
82 | IKBKE, construct: Full length (from UniProt Q14164) | 1.42
83 | MAP4K5, construct: Full length (from UniProt Q9Y4K4) | 1.37
84 | NEK6, construct: Full length (from UniProt Q9HC98) | 1.06
85 | SIK3, construct: aa1-307 (from UniProt Q9Y2K2) | 0.684
86 | TNIK, construct: aa1-314 (from UniProt Q9UKE5) | 1.2
